According to US20230355761A1 (CRISPR THERAPEUTICS, published 2023):

Molecular target: T1, CD70 on human cancer cell lines (A498, ACHN, SK-OV-3, Hs 766T, NCI-H1975, Calu-1, DU 145, SNU-1, MM.1S, HuT78) (human, UniProt P32970 1-193)
T1 sequence (looked up): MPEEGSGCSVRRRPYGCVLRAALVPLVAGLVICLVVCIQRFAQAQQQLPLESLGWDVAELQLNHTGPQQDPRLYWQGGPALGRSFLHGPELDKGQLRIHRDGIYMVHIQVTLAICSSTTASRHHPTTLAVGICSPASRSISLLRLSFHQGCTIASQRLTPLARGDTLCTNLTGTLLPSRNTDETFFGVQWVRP
Assay: cell-based or functional assay

cell lysis of CD70+ A498 cells by TRAC-/β2M-/CD70-/anti-CD70 CAR+ T cells, Cell titer-Glo, 24 h, T cell:A498 ratios 1:1 and 0.5:1: > 90%
cell lysis of CD70+ A498 cells by TRAC-/β2M-/anti-CD70 CAR+ T cells (2X KO), Cell titer-Glo, 24 h, T cell:A498 ratios 1:1 and 0.5:1: < 90%
B1: anti-CD70 CAR (CD70B scFv with 41BB), as expressed on the surface of gene-edited human T cells (CTX130; TRAC-/β2M-/CD70-/anti-CD70 CAR+ T cells) (other)
chain: QVQLVQSGAEVKKPGASVKVSCKASGYTFTNYGMNWVRQAPGQGLKWMGWINTYTGEPTYADAFKGRVTMTRDTSISTAYMELSRLRSDDTAVYYCARDYGDYGMDYWGQGTTVTVSSGGGGSGGGGSGGGGSGDIVMTQSPDSLAVSLGERATINCRASKSVSTSGYSFMHWYQQKPGQPPKLLIYLASNLESGVPDRFSGSGSGTDFTLTISSLQAEDVAVYYCQHSREVPWTFGQGTKVEIKSAAAFVPVFLPAKPTTTPAPRPPTPAPTIASQPLSLRPEACRPAAGGAVHTRGLDFACDIYIWAPLAGTCGVLLLSLVITLYCNHRNRKRGRKKLLYIFKQPFMRPVQTTQEEDGCSCRFPEEEEGGCELRVKFSRSADAPAYQQGQNQLYNELNLGRREEYDVLDKRRGRDPEMGGKPRRKNPQEGLYNELQKDKMAEAYSEIGMKGERRRGKGHDGLYQGLSTATKDTYDALHMQALPPR
cell kill of A498, ACHN, SK-OV-3 and Hs-766T cells by 3X KO CD70 CAR+ T cells, flow cytometry, 24 h, 1:1 effector:target cell ratio: > 50%
cell kill of A498, ACHN, SK-OV-3 and Hs-766T cells by 3X KO CD70 CAR+ T cells, flow cytometry, 24 h, 4:1 effector:target cell ratio: > 60%
cell kill of NCI-H1975, Calu-1 and DU 145 cells (medium to low CD70 expression) by 3X KO CD70 CAR+ T cells, flow cytometry, 24 h, 4:1 effector:target cell ratio: > 30%
cell kill of SKOV-3, Hs-766T and NCI-H1975 cells by 3X KO CD70 CAR+ T cells, flow cytometry, 96 h, 1:1 effector:target cell ratio: > 80%
